One may read the Kd as the equilibrium constant for the complex coming apart.

In test [1] the target is T1, Recombinant human ADAM9 (R&D Systems, 939-AD-020) (human, UniProt Q13443 29-697).
T1 sequence (looked up): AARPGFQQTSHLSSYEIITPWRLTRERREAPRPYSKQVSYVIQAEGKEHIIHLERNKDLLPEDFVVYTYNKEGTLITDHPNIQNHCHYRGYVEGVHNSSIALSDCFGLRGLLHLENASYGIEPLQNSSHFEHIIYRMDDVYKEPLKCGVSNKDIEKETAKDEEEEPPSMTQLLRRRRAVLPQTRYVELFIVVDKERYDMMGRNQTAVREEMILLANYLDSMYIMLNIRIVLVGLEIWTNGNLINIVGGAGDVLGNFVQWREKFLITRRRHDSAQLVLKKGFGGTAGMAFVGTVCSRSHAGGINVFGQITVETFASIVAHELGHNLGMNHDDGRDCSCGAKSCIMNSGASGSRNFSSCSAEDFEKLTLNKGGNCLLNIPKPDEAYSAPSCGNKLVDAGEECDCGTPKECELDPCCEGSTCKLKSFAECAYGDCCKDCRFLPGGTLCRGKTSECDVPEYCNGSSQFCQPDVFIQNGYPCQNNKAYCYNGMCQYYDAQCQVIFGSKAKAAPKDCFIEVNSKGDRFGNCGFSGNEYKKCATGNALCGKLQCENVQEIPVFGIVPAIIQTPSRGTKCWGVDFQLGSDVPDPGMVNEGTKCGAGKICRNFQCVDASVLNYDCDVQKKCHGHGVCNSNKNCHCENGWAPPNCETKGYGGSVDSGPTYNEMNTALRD
Nature of the test: ELISA, coated recombinant ADAM9. For orientation: An ELISA detects its analyte on a solid surface through an enzyme-linked reagent.

Test [2] deals with T2, Recombinant human ADAM8 (rHuADAM8) ectodomain protein (aa 17-497), ACRO Biosystems AD8-H5223 (human, UniProt P78325 17-497).
T2 construct: Bought protein made in HEK293 cells; The protein clips off its own prodomain (aa 17-191); also called rhADAM8; immunogen
T2 sequence: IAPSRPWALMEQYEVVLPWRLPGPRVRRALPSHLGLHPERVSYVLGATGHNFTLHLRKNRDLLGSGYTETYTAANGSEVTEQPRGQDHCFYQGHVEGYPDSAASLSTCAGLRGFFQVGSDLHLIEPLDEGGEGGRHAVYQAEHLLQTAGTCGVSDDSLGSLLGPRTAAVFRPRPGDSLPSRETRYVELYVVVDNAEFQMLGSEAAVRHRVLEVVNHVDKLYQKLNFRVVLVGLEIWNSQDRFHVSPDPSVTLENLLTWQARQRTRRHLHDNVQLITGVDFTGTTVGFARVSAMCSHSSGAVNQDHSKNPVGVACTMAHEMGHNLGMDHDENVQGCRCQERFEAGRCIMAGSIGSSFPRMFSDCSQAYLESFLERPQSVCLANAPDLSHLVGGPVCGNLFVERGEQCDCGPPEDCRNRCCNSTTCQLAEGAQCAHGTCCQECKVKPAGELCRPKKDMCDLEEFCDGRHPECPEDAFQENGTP
Nature of the test: Biacore SPR, rHuADAM8 as analyte. The protocol:
For Biacore assays, each ADP was used as the ligand in a multiple cycle kinetics method performed on a Biacore™ T200 surface plasmon resonance system (GE Healthcare Life Sciences) machine. ADP proteins were captured using anti-mouse Fc IgG attached to a dextran matrix, and rHuADAM8 (Acro Biosystems, AD8-H5223) added as the analyte at concentrations ranging from 3.75 nM to 200 nM. HBS-EP+ (10 mM HEPES, 0.15 M NaCl, 3 mM EDTA, 0.05% Surfactant P20) running buffer was passed at a flow rate of 30 μl/min and antigen injected at 30 μl/min. The association and dissociation phases were carried out for 180 s and 600 s, respectively. Surface regeneration was performed for 30 s at 30 μl/min of Glycine pH 1.5. Values for association rate constant (kₐ), dissociation rate constant (kd) and equilibrium dissociation constant (KD) were calculated through the Biacore™ T200 Software.
In general terms: SPR reads the build-up and loss of mass on a sensor chip optically.

Test [3] deals with T3, Recombinant human ADAM12 (Acro Biosystems, AD2-H5228) (human, UniProt O43184 208-708).
T3 sequence (looked up): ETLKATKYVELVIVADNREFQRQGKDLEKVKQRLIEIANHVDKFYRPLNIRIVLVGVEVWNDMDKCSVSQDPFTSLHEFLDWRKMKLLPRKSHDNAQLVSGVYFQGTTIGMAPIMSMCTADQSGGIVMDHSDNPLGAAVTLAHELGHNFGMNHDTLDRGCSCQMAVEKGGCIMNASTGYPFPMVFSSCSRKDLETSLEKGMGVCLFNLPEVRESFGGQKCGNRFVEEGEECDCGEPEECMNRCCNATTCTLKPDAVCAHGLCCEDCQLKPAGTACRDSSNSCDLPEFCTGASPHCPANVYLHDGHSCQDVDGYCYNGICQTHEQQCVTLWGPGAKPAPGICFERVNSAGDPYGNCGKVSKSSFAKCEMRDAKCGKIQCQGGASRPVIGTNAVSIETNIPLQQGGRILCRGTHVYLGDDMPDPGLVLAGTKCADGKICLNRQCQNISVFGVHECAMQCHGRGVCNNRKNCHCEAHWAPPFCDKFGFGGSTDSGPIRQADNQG
Nature of the test: ELISA, coated recombinant ADAM12.

Test [4] has as its target T2, Recombinant human ADAM8 (rHuADAM8) …. Put plainly: adhesion of α9β1 integrin CHO cells to coated rHuADAM8, antibody 20 µg/ml, vs isotype control IgG; mean ± S.D., n=3. An excerpt:
To mimic this process and evaluate both the presence of an active DI domain on rHuADAM8 and the ability of ADPs to inhibit this activity in vitro, adhesion of Chinese Hamster Ovary (CHO) cells expressing α9β1 integrin vs the negative control αvβ3 integrin was used (Rao et al., J Bone Miner Res, 21(10): 1657-1665, 2006). CHO cells were maintained in DMEM high glucose (Invitrogen) supplemented with 10% FBS, 1% penicillin/streptomycin (Hyclone), L-glutamine (Gibco), non-essential amino acids (Gibco) and 100 μg/ml G418 (Teknova). Adhesion of CHO cells expressing α9β1 integrin or αvβ3 integrin to plates coated with rHuADAM8 (Acro Biosystems, AD8-H5223) was assessed as follows. Briefly, 96-well plates were coated overnight with 1.5 μg of rHuADAM8 per well, blocked with 1% BSA and washed with PBS.
To assess the ability of ADPs to inhibit DI activity, 96-well plates coated with rHuADAM8 as above were pre-treated in duplicate for 2 hours with either PBS, 20 μg/ml of dialyzed or protein A purified ADP, MAB1031 or control isotype-matched IgGs. Unattached cells were washed off and attached cells counted as above.

B1: ADP2 (antibody, V domains shown)
VH: EVKLVESGGGLVQPGGSLSLSCAASGFSFPDYYMSWVRQPPGKALEWLGFIRDSANGYTTEYIASVKGRFTFSRDNSQSILYLQMNALRAEDSATYYCARYSRYYGMDYWGQGTSVTVSS
VL: SIVMTQTPKILLVSAGDRVTITCKASQTVNYDVAWYQQKPGQSPKPVIYFASNRYTGVPDRFTGSGFGTDFTFTISTVQAEDLAVYFCQQDYSAPWTFGGGTKLEIK
notes: also called mADP2; mouse ADP2
Turning to B1, the “OD 450nm” value in test [1] is 0.07 OD450nm; in test [3], 0.14 OD450nm. The binding result in test [1] and in test [3] was “no binding (tested: 1 µg/ml)” in each case. In addition, the Kd in test [2] amounted to 3.34 nM. Moreover, in test [4], the “% inhibition of α9β1 integrin binding to ADAM8” value (shortened to “% inhibition”) was 72 % inhibition.

B2: ADP3 (antibody, IgG1, V domains shown)
VH: EVKLEESGGGLVQPGGSMKLSCAASGFTFSDAWMDWVRQSPEKGLEWVAEIRGKVNNLATYYVESVKGRFTISRDDSKSSVYLQMNSLRAEDTGIYYCLGRYDATYAMDYWGQGTSVTVSS
VL: DVVMTQTPLSLPVSLGDQASISCRSSQSLVHSDGNTYLHWYLQKPGQSPKLLIYKLSNRFSGVPDRFSGSGSGTDFTLKISRVEAEDLGVYFCSQSTHVPWTFGGGTKLEIK
For B2, the “OD 450nm” value in test [1] stood at 0.15 OD450nm; in test [3] it was 0.16 OD450nm. For the same molecule, the Kd in test [2] worked out at 18.3 nM. Moreover, in test [4], the “% inhibition” value is 69.3 % inhibition.

B3: ADP13 (antibody, IgG1, V domains shown)
VH: EVQLQQSGPEMVKPGTSVKISCKASGYTFTDYYINWVKQSHGKSLEWIGDISPNIGGATYNPKFKGKAILTVDKSARTAYMELRSLTSEDSAVYCCTRGGSSYPYFYAMDYWGQGTSVTVSS
VL: DIVMSQSPSSLAVSVGEKVTMSCKSSQSLLYSSNQKKYLAWYQQKPGQSPKLLIYWASTRESGVPDRFTGSGSGTDFTLTISSVKAEDLAVYYCQQFYSYPYTFGGGTKLEINR
notes: also called mADP13; mouse ADP13
As for B3, in test [1], the “OD 450nm” value was 0.12 OD450nm and the binding result is on record as “no binding (tested: 1 µg/ml)”. In test [2], the Kd turned out to be 1.3 nM. Further, in test [3], the “OD 450nm” value turned out to be 0.12 OD450nm and the binding result is listed as “no binding (tested: 1 µg/ml)”. Also, the “% inhibition” value in test [4] was found to be 78.5 % inhibition.

Source of the values: patent US20220227882A1 (TRUSTEES OF TUFTS COLLEGE, published 2022).
